Source: FireProtDB (doi:10.1110/ps.8.12.2645)

Conditions: Saccharomyces cerevisiae (strain ATCC 204508 / S288c), pH 6, Thermal, DSC, Sodium phosphate 0.1 M, reversible: yes

Chain of Cytochrome c isoform 1 F88Y|L91A, P00044 F88Y L91A (P00044 whole entry F88Y/L91A, canonical isoform): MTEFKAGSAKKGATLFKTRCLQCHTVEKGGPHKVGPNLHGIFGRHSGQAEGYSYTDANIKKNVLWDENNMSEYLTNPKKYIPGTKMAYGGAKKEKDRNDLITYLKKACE
Chain of Cytochrome c isoform 1 wild type, P00044 (P00044 whole entry, canonical isoform): as the sequence (P00044 whole entry F88Y/L91A, canonical isoform) above, with Y88F, A91L counted along it
Chain of Cytochrome c isoform 1 L91A, P00044 (P00044 whole entry L91A, canonical isoform): as the sequence (P00044 whole entry F88Y/L91A, canonical isoform) above, with Y88F counted along it
Chain of Cytochrome c isoform 1 F88Y, P00044 (P00044 whole entry F88Y, canonical isoform): as the sequence (P00044 whole entry F88Y/L91A, canonical isoform) above, with A91L counted along it

Substance	ddG of mutation (higher = less stable) (25 °C, structure 1YCC) [kcal/mol]	heat capacity change of unfolding (25 °C, structure 1YCC) [kcal/mol/K]	unfolding enthalpy (calorimetric) (25 °C, structure 1YCC) [kcal/mol]	unfolding free energy (25 °C, structure 1YCC) [kcal/mol]	unfolding enthalpy (calorimetric) (60 °C, structure 1YCC) [kcal/mol]	unfolding free energy (60 °C, structure 1YCC) [kcal/mol]	Tm (structure 1YCC) [°C]	heat capacity change of unfolding (structure 1YCC) [kcal/mol/K]	unfolding enthalpy (calorimetric) (structure 1YCC) [kcal/mol]	unfolding enthalpy (van 't Hoff) (structure 1YCC) [kcal/mol]	heat capacity change of unfolding (25 °C) [kcal/mol/K]	unfolding enthalpy (calorimetric) (25 °C) [kcal/mol]	unfolding free energy (25 °C) [kcal/mol]	unfolding enthalpy (calorimetric) (60 °C) [kcal/mol]	Tm [°C]	heat capacity change of unfolding [kcal/mol/K]	unfolding enthalpy (calorimetric) [kcal/mol]	unfolding enthalpy (van 't Hoff) [kcal/mol]
Cytochrome c isoform 1 F88Y, P00044	0.7	0.58	27	4.8	83	1.01	55.8	0.58	76	103	–	–	–	–	–	–	–	–
Cytochrome c isoform 1 F88Y|L91A, P00044 F88Y L91A	–	–	–	–	80	–	45.6	0.31	57	92	–	–	–	–	–	–	–	–
Cytochrome c isoform 1 L91A, P00044	2.8	0.45	23	2.7	79	2.9	46.3	0.45	57	88	–	–	–	–	–	–	–	–
Cytochrome c isoform 1 wild type, P00044	–	–	–	–	–	–	–	–	–	–	0.26	26	5.5	81	60	0.26	81	110
